Paper PMC12435897

Experiments:
Parameters in all cases: EC50 of β-arrestin-1 recruitment to the receptor (NanoBiT, HEK293T, agonist mode) (M (inferred, not given)) / EC50 of β-arrestin-1 recruitment to CCR3 (NanoBiT, HEK293T, agonist mode) (M (inferred, not given)) / EC50 of β-arrestin-1 recruitment to CCR5 (NanoBiT, HEK293T, agonist mode) (M (inferred, not given)): unit not given beside the values
[1] = molecular target: WT CCR5 C-terminally fused to SmBiT (human) (UniProt P51681)
[2] = molecular target: T1, human CCR10 on Ready-to-Assay Chem-1 cells (human) (UniProt P46092)
T1 sequence: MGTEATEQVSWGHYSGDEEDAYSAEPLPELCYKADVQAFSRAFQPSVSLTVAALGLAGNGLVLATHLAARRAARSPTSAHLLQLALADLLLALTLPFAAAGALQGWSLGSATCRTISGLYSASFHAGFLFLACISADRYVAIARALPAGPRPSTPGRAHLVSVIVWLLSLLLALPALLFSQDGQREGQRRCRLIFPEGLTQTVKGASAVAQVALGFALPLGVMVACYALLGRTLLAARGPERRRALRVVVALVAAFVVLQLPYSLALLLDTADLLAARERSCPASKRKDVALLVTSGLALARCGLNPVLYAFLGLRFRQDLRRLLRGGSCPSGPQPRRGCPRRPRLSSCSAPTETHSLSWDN

[3] = molecular target: T2, human CCR3 on Ready-to-Assay Chem-1 cells (human) (UniProt P51677)
T2 sequence: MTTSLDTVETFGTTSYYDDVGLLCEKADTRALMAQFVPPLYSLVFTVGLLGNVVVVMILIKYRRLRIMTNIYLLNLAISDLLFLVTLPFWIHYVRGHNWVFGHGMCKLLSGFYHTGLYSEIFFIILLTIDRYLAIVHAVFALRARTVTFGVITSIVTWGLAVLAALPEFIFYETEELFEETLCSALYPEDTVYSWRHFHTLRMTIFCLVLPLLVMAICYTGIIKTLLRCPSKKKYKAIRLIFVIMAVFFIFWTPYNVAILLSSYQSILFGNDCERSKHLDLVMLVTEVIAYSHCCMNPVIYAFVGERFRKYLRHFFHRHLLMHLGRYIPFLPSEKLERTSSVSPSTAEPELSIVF

[4] = molecular target: WT CXCR4 C-terminally fused to SmBiT (human) (UniProt P61073)
[5] = molecular target: T3, WT CCR3 C-terminally fused to SmBiT (human) (UniProt P51677)
T3 sequence: T2 sequence

Molecule: CCL3 (from UniProt P10147 24-92) (ligand; in M (unit assumed))
- EC50 of β-arrestin-1 recruitment to the receptor (NanoBiT, HEK293T, agonist mode) (M (inferred, not given)) [1]: 4.12e-08

Molecule: CCL4 (from UniProt P13236 24-92) (ligand; in M (unit assumed))
- EC50 of β-arrestin-1 recruitment to the receptor (NanoBiT, HEK293T, agonist mode) (M (inferred, not given)) [1]: 1.45e-07

Molecule: CCL5 (from UniProt P13501 24-91) (ligand)
- β-arrestin-1 recruitment to the receptor (NanoBiT, HEK293T, agonist mode): mean peak activity, no single EC50 (fold untreated) [1]: 16.5

Molecule: CCL28 ∆1 (∆S) (ligand)
- EC50 of calcium flux in Chem-1 cells expressing the receptor (row labelled WT CCR3 in the sheet, taken as CCR10) [2]: 170 nM

Molecule: CCL28 ∆1 (∆S) (ligand; in M (unit assumed))
- EC50 of calcium flux in Chem-1 cells expressing the receptor (M (inferred, not given)) [3]: 1.72e-07

Molecule: CCL28 ∆2 (∆SE) (ligand)
- EC50 of calcium flux in Chem-1 cells expressing the receptor (row labelled WT CCR3 in the sheet, taken as CCR10) [2]: 29 nM

Molecule: CCL28 ∆2 (∆SE) (ligand; in M (unit assumed))
- EC50 of calcium flux in Chem-1 cells expressing the receptor (M (inferred, not given)) [3]: 5.46e-08

Molecule: CCL28 ∆3 (∆SEA) (ligand)
- EC50 of calcium flux in Chem-1 cells expressing the receptor (row labelled WT CCR3 in the sheet, taken as CCR10) [2]: 32 nM

Molecule: CCL28 ∆3 (∆SEA) (ligand; in M (unit assumed))
- EC50 of calcium flux in Chem-1 cells expressing the receptor (M (inferred, not given)) [3]: 5.22e-08

Molecule: CCL28 ∆4 (∆SEAI) (ligand)
- EC50 of calcium flux in Chem-1 cells expressing the receptor (row labelled WT CCR3 in the sheet, taken as CCR10) [2]: 390 nM

Molecule: CCL28 ∆4 (∆SEAI) (ligand; in M (unit assumed))
- EC50 of calcium flux in Chem-1 cells expressing the receptor (M (inferred, not given)) [3]: 2.79e-08

Molecule: CXCL12 (from UniProt P48061 22-93) (ligand)
- EC50 of β-arrestin-1 recruitment to the receptor (NanoBiT, HEK293T, agonist mode) [4]: 1.41 nM

Molecule: vMIP-II K10T (ligand)
- EC50 of β-arrestin-1 recruitment to CCR3 (NanoBiT, HEK293T, agonist mode) (M (inferred, not given)) [5]: 5.84e-10

Molecule: vMIP-II L13F (ligand)
- EC50 of β-arrestin-1 recruitment to CCR3 (NanoBiT, HEK293T, agonist mode) (M (inferred, not given)) [5]: 5.34e-10

Molecule: vMIP-II R7I (ligand)
- EC50 of β-arrestin-1 recruitment to CCR3 (NanoBiT, HEK293T, agonist mode) (M (inferred, not given)) [5]: 3.79e-10

Molecule: vMIP-II R7I/K10T/L13F (ligand)
- EC50 of β-arrestin-1 recruitment to CCR3 (NanoBiT, HEK293T, agonist mode) (M (inferred, not given)) [5]: 1.11e-09
- EC50 of β-arrestin-1 recruitment to CCR5 (NanoBiT, HEK293T, agonist mode) (M (inferred, not given)) [1]: 1.08e-07

B1: WT CCL28 (ligand)
chain: SEAILPIASSCCTEVSHHISRRLLERVNMCRIQRADGDCDLAAVILHVKRRRICVSPHNHTVKQWMKVQAAKKNGKGNVCHRKKHHGKRNSNRAHQGKHETYGHKTPY
- EC50 of calcium flux in Chem-1 cells expressing the receptor (row labelled WT CCR3 in the sheet, taken as CCR10) [2]: 230 nM
- EC50 of calcium flux in Chem-1 cells expressing the receptor (M (inferred, not given)) [3]: 1.42e-07

B2: viral macrophage inflammatory protein II (vMIP-II) (ligand)
chain: GDTLGASWHRPDKCCLGYQKRPLPQVLLSSWYPTSQLCSKPGVIFLTKRGRQVCADKSKDWVKKLMQQLPVTAR
- EC50 of β-arrestin-1 recruitment to CCR3 (NanoBiT, HEK293T, agonist mode) (M (inferred, not given)) [5]: 1.35e-09
